In article PMC5912500 one finds percent of the protein as dimers data, which are given here for one molecule.

For this experiment, the target named is T1, Wild-type (WT) moesin, P26038.
T1 chain: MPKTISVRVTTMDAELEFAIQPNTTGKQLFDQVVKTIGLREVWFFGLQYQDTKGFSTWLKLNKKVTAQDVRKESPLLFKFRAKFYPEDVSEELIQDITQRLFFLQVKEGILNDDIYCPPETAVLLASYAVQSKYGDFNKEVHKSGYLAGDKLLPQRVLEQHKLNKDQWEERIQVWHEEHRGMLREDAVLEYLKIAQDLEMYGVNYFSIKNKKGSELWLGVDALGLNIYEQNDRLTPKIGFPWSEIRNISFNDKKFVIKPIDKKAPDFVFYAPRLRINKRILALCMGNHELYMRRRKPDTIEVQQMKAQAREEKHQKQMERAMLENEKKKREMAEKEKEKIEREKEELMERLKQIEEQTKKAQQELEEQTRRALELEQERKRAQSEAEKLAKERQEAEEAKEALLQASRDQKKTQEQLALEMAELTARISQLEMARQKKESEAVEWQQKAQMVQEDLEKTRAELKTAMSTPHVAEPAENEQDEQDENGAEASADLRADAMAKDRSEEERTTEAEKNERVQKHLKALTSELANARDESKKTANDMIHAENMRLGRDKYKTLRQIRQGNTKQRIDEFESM
Description: AUC. The note with it: remark: other sources report otherwise.

B1: Wild-type (WT) moesin, P26038 1-577 (natural protein)
chain: MPKTISVRVTTMDAELEFAIQPNTTGKQLFDQVVKTIGLREVWFFGLQYQDTKGFSTWLKLNKKVTAQDVRKESPLLFKFRAKFYPEDVSEELIQDITQRLFFLQVKEGILNDDIYCPPETAVLLASYAVQSKYGDFNKEVHKSGYLAGDKLLPQRVLEQHKLNKDQWEERIQVWHEEHRGMLREDAVLEYLKIAQDLEMYGVNYFSIKNKKGSELWLGVDALGLNIYEQNDRLTPKIGFPWSEIRNISFNDKKFVIKPIDKKAPDFVFYAPRLRINKRILALCMGNHELYMRRRKPDTIEVQQMKAQAREEKHQKQMERAMLENEKKKREMAEKEKEKIEREKEELMERLKQIEEQTKKAQQELEEQTRRALELEQERKRAQSEAEKLAKERQEAEEAKEALLQASRDQKKTQEQLALEMAELTARISQLEMARQKKESEAVEWQQKAQMVQEDLEKTRAELKTAMSTPHVAEPAENEQDEQDENGAEASADLRADAMAKDRSEEERTTEAEKNERVQKHLKALTSELANARDESKKTANDMIHAENMRLGRDKYKTLRQIRQGNTKQRIDEFESM
Take B1: the percent of the protein as dimers is 29 to 31%.
